Our source for the KM of the 70S ribosome-stimulated multiple turnover GTPase activity (0.01 uM protein, 100 uM GTP, 0 to 8 uM 70S) values is PMC4339808.

The target of the assay is 70S ribosome (vacant) (E. coli MRE600).
For “EF4 ΔA494 (from UniProt P60785 1-494) (domain or fragment)”, the KM of the 70S ribosome-stimulated multiple turnover GTPase activity (0.01 uM protein, 100 uM GTP, 0 to 8 uM 70S) was 36 µM.
To “EF4 ΔP520 (from UniProt P60785 1-520) (domain or fragment)” belongs 10 µM.
In the case of “EF4 ΔG555 (from UniProt P60785 1-555) (domain or fragment)”, the KM of the 70S ribosome-stimulated multiple turnover GTPase activity (0.01 uM protein, 100 uM GTP, 0 to 8 uM 70S) turned out to be 7 µM.
To “Elongation Factor 4 (EF4/LepA), wild type (from UniProt P60785 1-599) (enzyme)” belongs 0.32 µM.
